Residue numbers refer to the chain shown, from its start. Numbers in names are those of the source.
T1: mouse CD137 ligand on DO11.10 cells (mouse, UniProt P41274 1-309)
T1 construct: whole, on cells
T1 sequence (looked up): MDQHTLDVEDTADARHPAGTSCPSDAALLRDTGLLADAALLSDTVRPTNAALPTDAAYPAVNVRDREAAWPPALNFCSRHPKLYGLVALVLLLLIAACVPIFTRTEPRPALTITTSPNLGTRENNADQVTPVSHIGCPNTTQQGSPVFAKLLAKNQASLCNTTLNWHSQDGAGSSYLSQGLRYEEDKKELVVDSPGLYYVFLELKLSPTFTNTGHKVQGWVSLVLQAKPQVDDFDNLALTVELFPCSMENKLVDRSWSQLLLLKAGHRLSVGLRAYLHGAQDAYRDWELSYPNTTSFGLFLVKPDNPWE

T2: mouse GITR (R&D Systems, biotinylated) (mouse, UniProt O35714 22-153, limits assumed, biotinylated)
T2 sequence (looked up): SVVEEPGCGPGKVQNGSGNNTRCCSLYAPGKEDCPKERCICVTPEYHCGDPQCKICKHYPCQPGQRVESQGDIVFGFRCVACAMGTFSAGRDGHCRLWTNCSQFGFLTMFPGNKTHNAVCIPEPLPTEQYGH

T3: human OX40 (human, UniProt P43489 29-216)
T3 sequence (looked up): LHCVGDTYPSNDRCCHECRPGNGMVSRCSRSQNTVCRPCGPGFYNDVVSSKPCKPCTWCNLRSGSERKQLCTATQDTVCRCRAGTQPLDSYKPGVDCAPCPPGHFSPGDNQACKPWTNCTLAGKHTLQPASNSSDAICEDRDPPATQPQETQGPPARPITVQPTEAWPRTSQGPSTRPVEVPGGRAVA

T4: human GITR (human, UniProt Q9Y5U5 26-161, limits assumed)
T4 sequence (looked up): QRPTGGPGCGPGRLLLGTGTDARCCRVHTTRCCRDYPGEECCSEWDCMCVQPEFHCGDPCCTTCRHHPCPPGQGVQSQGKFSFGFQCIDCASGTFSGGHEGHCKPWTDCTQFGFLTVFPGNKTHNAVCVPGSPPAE

T5: cCD137-mFc-Avi (cynomolgus; mouse)
T5 construct: also called cynomolgus CD137-mFc-Avi; Cyno CD137-mFc-Avi; not shown: mouse IgG2a Fc domain (mIgG2a Fc)
T5 chain: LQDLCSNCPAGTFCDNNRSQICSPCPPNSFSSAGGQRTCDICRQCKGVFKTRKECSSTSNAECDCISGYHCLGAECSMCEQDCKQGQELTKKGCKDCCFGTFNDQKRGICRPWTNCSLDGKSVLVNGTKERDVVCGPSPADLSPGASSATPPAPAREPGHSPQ

B1: mCD137-mFc-Avi (Fc fusion)
chain: VQNSCDNCQPGTFCRKYNPVCKSCPPSTFSSIGGQPNCNICRVCAGYFRFKKFCSSTHNAECECIEGFHCLGPQCTRCEKDCRPGQELTKQGCKTCSLGTFNDQNGTGVCRPWTNCSLDGRSVLKTGTTEKDVVCGPPVVSFSPSTTISVTPEGGPGGHSLQVL
notes: also called mouse CD137-mFc-Avi; mouse dimeric CD137; not shown: mouse IgG2a Fc domain (mIgG2a Fc)
B2: FS22m-063 in HeID1.3 mock mAb^2 format (bispecific antibody)
heavy: QVQLQESGPGLVRPSQTLSLTCTVSGSTFSGYGVNWVRQPPGRGLEWIGMIWGDGNTDYNSALKSRVTMLVDTSKNQFSLRLSSVTAADTAVYYCARERDYRLDYWGQGSLVTVSSASTKGPSVFPLAPSSKSTSGGTAALGCLVKDYFPEPVTVSWNSGALTSGVHTFPAVLQSSGLYSLSSVVTVPSSSLGTQTYICNVNHKPSNTKVDKKVEPKSCDKTHTCPPCPAPELLGGPSVFLFPPKPKDTLMISRTPEVTCVVVDVSHEDPEVKFNWYVDGVEVHNAKTKPREEQYNSTYRVVSVLTVLHQDWLNGKEYKCKVSNKALPAPIEKTISKAKGQPREPQVYTLPPSRDEPYWSYVSLTCLVKGFYPSDIAVEWESNGQPENNYKTTPPVLDSDGSFFLYSKLTVMNYRWELGNVFSCSVMHEALHNHYTQKSLSLSPG
light: DIQMTQSPASLSASVGETVTITCRASGNIHNYLAWYQQKQGKSPQLLVYNAKTLADGVPSRFSGSGSGTQYSLKINSLQPEDFGSYYCQHFWSTPRTFGGGTKLEIKRTVAAPSVFIFPPSDEQLKSGTASVVCLLNNFYPREAKVQWKVDNALQSGNSQESVTEQDSKDSTYSLSSTLTLSKADYEKHKVYACEVTHQGLSSPVTKSFNRGEC
notes: anti-mouse CD137 Fcab
B3: FS22-053-017 in HeID1.3 mock mAb^2 format (bispecific antibody)
heavy: QVQLQESGPGLVRPSQTLSLTCTVSGSTFSGYGVNWVRQPPGRGLEWIGMIWGDGNTDYNSALKSRVTMLVDTSKNQFSLRLSSVTAADTAVYYCARERDYRLDYWGQGSLVTVSSASTKGPSVFPLAPSSKSTSGGTAALGCLVKDYFPEPVTVSWNSGALTSGVHTFPAVLQSSGLYSLSSVVTVPSSSLGTQTYICNVNHKPSNTKVDKKVEPKSCDKTHTCPPCPAPELLGGPSVFLFPPKPKDTLMISRTPEVTCVVVDVSHEDPEVKFNWYVDGVEVHNAKTKPREEQYNSTYRVVSVLTVLHQDWLNGKEYKCKVSNKALPAPIEKTISKAKGQPREPQVYTLPPSRDELNPPYLFSNQVSLTCLVKGFYPSDIAVEWESNGQPENNYKTTPPVLDSDGSFFLYSKLTVYHWRWLEGNVFSCSVMHEALHNHYTQKSLSLSPG
light: B2 light
notes: FS22-053-014 with D98E (IMGT, CH3); range 1-339 derived by counting; also called FS22-053-17
B4: FS22-053-014/HeID1.3 (bispecific antibody, human IgG1, kappa)
heavy: B3 heavy with E423D
light: B2 light
notes: mock mAb^2; also called FS22-053-014 (mock mAb^2 format); FS22-053-14

Columns and labels:
[1] = target: T1, mouse CD137 ligand on DO11.10 cells; assay: flow cytometry, anti mouse Fc detection
Protocol: In more detail, materials from the same production lot were mixed together and analysed for stability and purity by size-exclusion high-performance liquid chromatography (SE-HPLC), SDS polyacrylamide gel electrophoresis (SDS-PAGE), and size-exclusion chromatography with multi-angle light scattering (SEC-MALS). […] Cells were incubated with the CD137 antigens for 1 hour, and then a fluorescently-labelled anti mouse Fc fragment antibody was used to detect cell binding.

[2] = target: T6, mouse CD137, cell-surface (mouse, UniProt P20334 24-256); assay: cell-based or functional assay
[3] = target: T6, mouse CD137, cell-surface; assay: cell-based or functional assay; remark: listed apart in the source
[4] = target: mouse CD40 (R&D Systems, biotinylated) (mouse, UniProt P27512 24-193, limits assumed, biotinylated); assay: BLI (Octet), biotinylated receptor on streptavidin sensors
Protocol: (§1) The specificity of the anti-mouse CD137 Fcabs for mouse CD137 was tested in HeID1.3 “mock” mAb² format and measured by BLI in an Octet QKe system by testing for binding of the Fcabs to other mouse TNFRSF receptors (CD40, OX40, GITR). […] Anti-mouse CD137 Fcabs in mock mAb² format were diluted 1:1 in kinetic buffer (PALL 18-1092) to a final concentration of at least 1 μM. Antigen-coated sensors were dipped into the mAb² solutions for 180 seconds followed by 180 seconds in 1×kinetic buffer. Antibodies for each of the TNFRSF receptors were used as positive controls.

[5] = target: T2, mouse GITR (R&D Systems, biotinylated); assay: as above
Protocol: as §1

mCD137-mFc-Avi [6] = target: B1; assay: SPR (Biacore T200)
human CD40 = human CD40 (human, UniProt P25942 21-193, limits assumed); assay: SPR, receptor amine-coupled to CM5 (~1000 RU)
Protocol: (§2) The specificity of the anti-human CD137 Fcabs for human CD137 compared to other related TNFSFR family members was tested. 8 of the Fcabs were tested in mock mAb² (HeID1.3) format and measured by SPR in a Biacore T200 (GE Healthcare) by testing for binding to other human TNFRSF receptors: CD40, OX40 and GITR. Amine coupling (amine coupling kit, GE Healthcare, BR-1000-50) was used to coat human CD40, GITR and OX40 to approximately 1000 RU in Biacore CM5 chips (GE Healthcare, cat no 29149603). […] The chip was regenerated by injection of 10 mM glycine pH 2.5 for 12 s at 30 μl/min. Antibodies specific to the different TNFRSF members were used as positive controls to verify Biacore chip coating. Data was double reference subtracted and analysed using BIAevaluation 3.2 software.

human OX40 = target: T3, human OX40; assay: SPR, receptor amine-coupled to CM5 (~1000 RU)
Protocol: as §2

human GITR = target: T4, human GITR; assay: SPR, receptor amine-coupled to CM5 (~1000 RU)
Protocol: as §2

mCD137-mFc-Avi [7] = target: B1; assay: SPR, mAb^2 captured by anti-human Fab, antigen in flow, 1:1 Langmuir fit
Protocol: (§3) An anti-human Fab capture antibody was immobilised on all four flow cells of a CM5 series S chip (GE Healthcare #BR-1005-30) to an average surface density of 6000 RU following the manufacturer's recommendations (GE Healthcare, human Fab capture Kit, #28958325). […] Each mAb² was captured to approximately 150 RU by injecting a 3 μg/ml solution of mAb² diluted in HBS-EP+ buffer (GE Healthcare #BR1006-69) for 60 seconds at 30 μl/min. Then different concentrations of human, cyno or mouse CD137 antigen (unbiotinylated human, cyno or mouse CD137-mFc-Avi or human CD137-Avi-His) in HBS-EP+ buffer were flowed over the chip for 3 min at 60 μl/min and then allowed to dissociate for 10 minutes. After each antigen concentration the chip was regenerated by infecting 10 mM glycine pH 2.1 at a flow rate of 30 μl/min for 30 seconds. Buffer HBS-EP+ was injected before the highest concentration of antigen and after the lowest concentration of antigen for reference subtraction, and one of the concentrations at random was repeated twice. The binding kinetics were fit with a 1:1 Langmuir model to generate equilibrium binding constants (KD) for each sample. Data analysis was performed with BiaEvaluation software version 3.2.

cCD137-mFc-Avi = target: T5, cCD137-mFc-Avi; assay: as above
Protocol: as §3

hCD137-mFc-Avi = target: T7, hCD137-mFc-Avi (human; mouse, UniProt Q07011 24-186, biotin on the Avi sequence where the biotinylated form was used); assay: as above
T7 construct: also called human CD137-mFc-Avi; dimeric human CD137; not shown: mouse IgG2a Fc domain (mIgG2a Fc)
Protocol: as §3

hCD137-Avi-His = target: T8, hCD137-Avi-His (human, UniProt Q07011 24-186); assay: as above
T8 construct: also called human CD137-Avi-His; monomeric human CD137
Protocol: as §3

T7 sequence (Q07011 24-186): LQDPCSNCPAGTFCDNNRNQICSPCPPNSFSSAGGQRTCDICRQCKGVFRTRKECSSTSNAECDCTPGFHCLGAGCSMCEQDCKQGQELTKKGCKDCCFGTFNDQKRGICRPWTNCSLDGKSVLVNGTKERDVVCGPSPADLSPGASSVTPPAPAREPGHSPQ
T8 sequence (Q07011 24-186): as above
Chain of mouse CD40 (R&D Systems, biotinylated) (P27512 24-193 limits assumed): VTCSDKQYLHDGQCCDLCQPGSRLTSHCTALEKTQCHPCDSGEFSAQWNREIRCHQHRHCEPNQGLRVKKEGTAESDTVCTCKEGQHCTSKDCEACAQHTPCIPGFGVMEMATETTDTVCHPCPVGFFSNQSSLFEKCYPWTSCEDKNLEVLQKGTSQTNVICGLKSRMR
Chain of human CD40 (P25942 21-193 limits assumed): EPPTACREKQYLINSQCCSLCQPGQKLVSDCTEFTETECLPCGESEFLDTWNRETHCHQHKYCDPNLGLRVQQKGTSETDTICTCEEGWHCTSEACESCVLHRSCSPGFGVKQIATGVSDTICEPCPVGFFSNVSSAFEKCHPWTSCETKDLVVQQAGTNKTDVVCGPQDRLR

Binder: B1
binding result [1]: binds

Binder: B2
+XL EC50 (nM), mouse CD137 DO11.10 T cell activation assay [2]: 0.39 nM
+XL Emax (IL-2 pg/ml), mouse CD137 DO11.10 T cell activation assay [2]: 24200 pg/mL
EC50 upon Protein L crosslinking, NF-κB luciferase assay (HEK.FRT.luc.mCD137) [3]: 1.44 nM
fold-change in activity upon crosslinking, NF-κB luciferase assay (HEK.FRT.luc.mCD137) [3]: 27 fold
binding result [4]: no binding (tested: at least 1 µM)
binding result [5]: no binding (tested: at least 1 µM)

Binder: B3
fold decrease in binding strength against FS22-053-014 (mCD137-mFc-Avi [6]): 2 fold
+XL EC50 (nM), mouse CD137 DO11.10 T cell activation assay [2]: 16.7 nM
+XL Emax (IL-2 pg/ml), mouse CD137 DO11.10 T cell activation assay [2]: 41000 pg/mL

Binder: B4
binding result (human CD40): no binding (tested: 1 µM)
binding result (human OX40): no binding (tested: 1 µM)
binding result (human GITR): no binding (tested: 1 µM)
+XL EC50 (nM), mouse CD137 DO11.10 T cell activation assay [2]: 2.04 nM
+XL Emax (IL-2 pg/ml), mouse CD137 DO11.10 T cell activation assay [2]: 28100 pg/mL
Kd (mCD137-mFc-Avi [7]): 24 nM
Kd (cCD137-mFc-Avi): 0.9 nM
Kd (hCD137-mFc-Avi): 3.2 nM
Human monomeric CD137 KD fold difference relative to human dimeric KD (hCD137-Avi-His): 100 fold

From patent US20250346679A1 (INVOX PHARMA, published 2025)
